Measurements as given in publication PMC2929022 (Molecular cell, 2010).

Target: T1, GST-YcgR-HA fusion (wild-type YcgR of E. coli) (E. coli, UniProt P76010 1-244)
T1 sequence (looked up): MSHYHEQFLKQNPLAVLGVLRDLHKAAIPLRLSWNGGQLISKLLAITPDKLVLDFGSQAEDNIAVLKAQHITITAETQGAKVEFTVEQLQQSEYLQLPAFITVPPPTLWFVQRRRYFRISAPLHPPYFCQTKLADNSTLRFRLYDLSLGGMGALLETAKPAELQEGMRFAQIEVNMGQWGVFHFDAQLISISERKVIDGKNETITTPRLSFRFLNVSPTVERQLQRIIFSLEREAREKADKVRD
Assay: pull-down

| Binder | fold increase of binding with c-di-GMP at 5 μM or higher over no added c-di-GMP [fold] |
| --- | --- |
| FliM (E. coli) (natural protein, UniProt P06974 1-334, looked up) MGDSILSQAEIDALLNGDSEVKDEPTASVSGESDIRPYDPNTQRRVVRERLQALEIINERFARHFRMGLFNLLRRSPDITVGAIRIQPYHEFARNLPVPTNLNLIHLKPLRGTGLVVFSPSLVFIAVDNLFGGDGRFPTKVEGREFTHTEQRVINRMLKLALEGYSDAWKAINPLEVEYVRSEMQVKFTNITTSPNDIVVNTPFHVEIGNLTGEFNICLPFSMIEPLRELLVNPPLENSRNEDQNWRDNLVRQVQHSQLELVANFADISLRLSQILKLNPGDVLPIEKPDRIIAHVDGVPVLTSQYGTLNGQYALRIEHLINPILNSLNEEQPK | ~2 |
| FliG (E. coli) (natural protein, UniProt P0ABZ1 1-331, looked up) MSNLTGTDKSVILLMTIGEDRAAEVFKHLSQREVQTLSAAMANVTQISNKQLTDVLAEFEQEAEQFAALNINANDYLRSVLVKALGEERAASLLEDILETRDTASGIETLNFMEPQSAADLIRDEHPQIIATILVHLKRAQAADILALFDERLRHDVMLRIATFGGVQPAALAELTEVLNGLLDGQNLKRSKMGGVRTAAEIINLMKTQQEEAVITAVREFDGELAQKIIDEMFLFENLVDVDDRSIQRLLQEVDSESLLIALKGAEQPLREKFLRNMSQRAADILRDDLANRGPVRLSQVENEQKAILLIVRRLAETGEMVIGSGEDTYV | ~2 |
